Assay: yeast display, Sf9 membrane polyspecificity reagent, FACS + sequencing; frameworks hold sequencing errors
Outline: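 After 36–48 hours of galactose induction, yeast (Saccharomyces cerevisiae BJ5465) displaying a synthetic nanobody library were stained at 4 °C for 1 hour with 10% biotinylated, detergent-solubilized Sf9 membrane reagent. Streptavidin microbeads enriched the stained cells before FACS sorting into low and high (top ~1%) gates on anti-HA and streptavidin fluorescence. Each clone's polyreactivity label reflects its gate of origin.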

Sequence | polyreactivity (PSR sort gate)
QVQLVESGGGLDQAGGSLRLSCAASGSIFEGNGMGWYRQAPGKERELVAAITFRSGSTYYADSVKGRFTISRDNAKNTVYLQMNSLKPEDTAVYYCAADEYYQVSAYDYWGQGTQVTVSS | low polyreactivity
QVQLVESGGGLVQAGGSLRLSCAASGYTSYTYTMGWYRQAPGKERELVAAISRRSDTTYADSVKGRFTISRDNAKNTVYLQMNSLKPEDTAVYYCAAVRVSYRSLSKSYYWGQGTQVTVSS | high polyreactivity
QVQLVESGGGLVQAGGSLRLSCAASGRIFPYYAMGWYRQAPGKERELVAVISTRGGSTYYADSVKGRFTISRDNAKNTVYLQMNSLKPEDTAVYYCAAKSVYRMGYWGQGTQVTVSS | high polyreactivity
QVQLVESDGGLVQAGGSHPLSSAASGRIIYRYTMGWYRQAPGKERELVAAIRYRTSSTYYADSVKGRFTISRDNAKNTVYLQMNSLKPEDTAVYYCAAYDGLRPHRMDYWGQGTQVTVSS | low polyreactivity
QVQLVESRGGLVQAGGSLRLSCAASGSIFTSYAMGWYRQAPGKERELVAAINGSGGSTFYADSVKGRFTISRDNAKNTVYLQMNSLKPQDTAVYYCNTGGPRGTTYDYWGQGTQVTVSS | low polyreactivity
HVQLVESGGVLVQAGGSLRLSCAATGSIFRNNAMGWYRQAPGKERDLVAAISSSGGSTFYADSVKGRFTISRDNAKNTVYLQMNSQNPEDTAVYYCAARVRSELIKRYDWGQGTQVTVSS | high polyreactivity
QVQLVESGGGLVQAGGSLRLRCAASGSTFYGYAMGRYRQAPGTERELVALISSSSGRTYYADSVKGRFTISRDNAKNTLYLQMNSLKPEDTAVYDCAKYVFGKFEGVRYSFDYWGQGTQVTVSS | low polyreactivity
QVQLVESGGGLVQAGGSLRLSCAASGRIFYRNAMGWYRQAPGKERELVAAISSGSGTYYADSVKGRFTISRDNAKNTVYLQMNSLKPEDTAVYYCAARARSRDYYWGQGTQVTVSS | high polyreactivity
QVQLVESGGGLVQAGGSLRLSCAASGSIFGTNAMGWYRQAPGKERELVATITSAGSTYYADSVKGRFTISRDNAKNTVYLQMNSLKPEDTAVYYCARQATGYVYREYDYWGQGTQVTVSS | low polyreactivity
QVQLVESGGGLVQAGGSLRLSCAASGRTFKWYAMGWYRQAPGKERELVAGISRGAGRTYYADSVKGRFTISRDNAKNTVYLQMNSLKPEDTAVYYCAAVPSYHSTSPFYYWGQGTQVTVSS | high polyreactivity
QVQLVESGAGLVQAGGSLRLSCAASGSTFNHYAMGWYRPAPGKDRELVAAITWSGDSTYYADSVKGRFTISRDNAKNTVYLQMNSLKPEDTAVYDCNTYRIFGYSPYYAGYDYWGQGTQVTVSS | low polyreactivity
QVQLVESGGGLVQAGGSLRLSCAGSGHIFPYNAMGWYRQGPGKEREFVAAISFRGGSRYYADSEKGRFTISRDNAKNTVYLQMNSLKPEDTAVYYCAKRSYPWGQGTQVTVSS | low polyreactivity
QVQLVEAGGGLVQAGGSLRLSCAASGSTFPYNARGWYSQAPGKDRELVAAMTSAGGTNYADSVKGRFTISRDNATNTVYLQMNSLKPEDTAVYYCAADGSGYYDWYYYWGQGTQVTVSS | low polyreactivity
QDQLVESGGGLVQAGGSLRLSCASSGSIITQYAMGWYRQAPGKERELVAAITSGGSPYADSVKGRFTISRDNAKNTVYLQMNSLKPEDTADYYCATPYSYRGVTFNYWGQGTQVTVSS | low polyreactivity
QVQLVESGGGLVQAGGSLRLSCAASGITFWRYALGWYRQAPGKEMELVAASRWSGSTYADSVKGRFTISRDNAKNTVYLQMNSLKPEDTAVYYCAAYPIGGYHDMDYWGQGTQVTVSS | high polyreactivity
QVQLVESGGGLVQAGGSLRLSCAASGRIIYPYALGWYRQAPGKERELVAAISSGSSTNYADSVKGRFTISRDNAKNTVYLQMNSLQPEDTAVYYCNADLVSGVVYDSDYWGQGTQVTVSS | low polyreactivity

Sequence | polyreactivity (PSR sort gate)
QVQLVESGGGLVQAGGSLRLSCAASGSTFKIYAMGWYRQAPGKERELVAAITRGGSTNYADSVKGRFTISRDNAKNTVYLQMNSLKPEDTAVYYCAASYWYRRYGTYTYDYWGQGTQVTVSS | high polyreactivity
QVQLVESAAGLVQAGASHRLSCAASARTFTVNAMGWYRQAPGKERELVAAISGRSGRTSYADSVKGRFTISRDNAKNTVYLQMNSLKQEVTAVYYCAADYYFYFTYPARFGYWGLGTQVTVSS | high polyreactivity
QVQLVESGGGLVQAGGSLRLSCAASGIIFAYNVIGWSRPAPGKERELVAAIRWGGGSTYADSVKGRFTISRDNAKNTVYLQMNSLKPEDTAVYYCATRYRSYYAKYGYNYWGQGTQVTVSS | high polyreactivity
QVQLVESGGGVVQAGGSLGLSCAASGRLFGYYAMGWYRQAPGKERELGAAINYSGGSTYYADSVKGRFTISRDNAKNTVYLQMNSLKPEDTAVYYCNAVRYTLLYYWGQGTQVTVSS | high polyreactivity
QVQLQESGGGLVQAGGSLRLSCAASGNIVDADIMGWYRQEPGKERELVASITDGGSTNYADSVKGRFTISRDNAKNTVYLQMNSLKPEDTAVYYCAAIAYPDIPTYFDYDSEYFYWGQGTQVTVSS | low polyreactivity
QVQLVESGGGLVQAGGSLRLSCAASGFIFHSYAMRWYRQAPGKERELVAAITHSGGRTYYADCVKGRFTISRDNAKNTVYLQMNSLKPEDTAVYYCAAVTRRHEYDYWGQGSQVTVSS | high polyreactivity
QVQLVESGGGLVQAGGSLRLSCAASGLIFRPYTMGWYRQAPGKERELVATISGSGASTNYADSVKGRFTISRDNAKNTVYLQMNSLKPEDTAVYYCKGRSYSRMYYWGQGTQVTVSS | high polyreactivity
QVQLVQSGGGLVQAGGSLRLSCAASGRTFSKYVLGWYRQAPGKERQLVAAITYSGGYTYYADSVKGRFTISRDNAKNTVYLQMYSLKPEDTAVYYCAAESYAHVSNGYDYWGQGTQVTVSS | low polyreactivity
QVQLVESGGGLVQAGGSLRISSAPSGITYYGNVMGWYRQAPGKERELVADISWSGGRTYYADSVKGRFTISRDNAKNTVYLQITSLKPEVTALYDCAAEGTTNRGVYASYDYWGQGTQVTVSS | low polyreactivity
LVQLVESGGALVQAGGSLRLSCAASGLIFYDYAMGWYRQAPGNDRELVAAISKGGGSTYYADSVKGRFTISRDYAKNSVYLQMNSLNTEDTAVYYGAASTSHTTDTRYDYWGQGTQVTVSS | low polyreactivity
QVQLVESGGGLVQAGGSLRLSCAASGRTFKYYAMGWYRQAPGKERELVASISRSGGITYYADSVKGRFTISRDNAKNTVYLQMNSLKPEDTAVYYCAARYSVRPISIYPFDFGYWGQGTQVTVSS | low polyreactivity
QVQLVESGGGLVQAGGSLRLSCAASGFTLFGYAMGWYRPAPGKERELVAAITSGDGRTYYADSVKGRFTISRDNAKNTVYLQMNSLKPEDTAVYYCAATRYSSYYYVRHDHWGQGTQVTVSS | low polyreactivity
QVQLVESGGGLVQAGGRLRLSCAASGRTFGVYAMGWYRQSPGKEREFVGVISWSDDSTYYADSVKGRFTISRDNAKNTVYLQMNSLKPEDTAVYYCNADDYLVYSGSHYGYWGQGTQVTVSS | low polyreactivity
QVQLVESGVGLVQAGGSLRLSCAASGSIFEDYVMGWYRQAPGKERELVADITSGGTTYYADSVKGRFTISRDNAKNTVYLQMNSLKPEDTAVYYCAAEVDWVPFLLDYWGQGTQVTVSS | low polyreactivity
QVQLVESGGGLVQAGGSLRLSCAASGSILGYYVMGWYRQAPGKERELVAVISSDGSTYYADSVKGRFTISRDNAKNTVYLQMNSLKPEDTAVYYCNADYYVEYDYWGQGTQVTVSS | low polyreactivity
QVQLVESGGGLVQAGGSLRLSCAASGGIFSTNGMGWYRQAPGKERELVATISYGGGSTSYADSVKGRFTISRDNAKNTVYLHMNSLKPEDTAVYYCAADSFGYNSWYNYDYWGQGSQVTVSS | low polyreactivity

— the nanobody polyreactivity screen of Harvey et al. (2022)
